± gives the uncertainty stated by the source.
B1: Storkhead-box protein 2, residues 64 to 141; numbered along this chain, Q9P2F5 (parent)
chain: SPISQSQFIPLGEILCLAISAMNSARKPVTQEALMEHLTTCFPGVPTPSQEILRHTLNTLVRERKIYPTPDGYFIVTP

Variants of: B1
Assay: abundance fitness (aPCA) (normalised: wild type 0, dead -1); higher = more abundant; growth selection in yeast, the domain comes from the species named
Conditions: Homo sapiens

Going from P48Y to P48E, the abundance fitness falls from -0.201 ± 0.06 to -0.447 ± 0.069.

P48W and P48G are within error of each other in abundance fitness: -0.28 ± 0.045 for the first, -0.311 ± 0.034 for the second.

P48K and P48H are within error of each other in abundance fitness: -0.44 ± 0.15 for the first, -0.354 ± 0.065 for the second.

First: P48L
Second: L34R
The abundance fitness of the first is higher: -0.259 ± 0.039 for the first, -0.83 ± 0.067 for the second.

L34E and L34Q are within error of each other in abundance fitness: -1.08 ± 0.22 for the first, -0.774 ± 0.11 for the second.

L34H and L34S are within error of each other in abundance fitness: -0.87 ± 0.21 for the first, -0.869 ± 0.071 for the second.

L34P and L34W are within error of each other in abundance fitness: -1.09 ± 0.14 for the first, -0.994 ± 0.12 for the second.

Y73Q and Y73T are within error of each other in abundance fitness: -0.078 ± 0.054 for the first, -0.174 ± 0.11 for the second.

Y73N and S49R are within error of each other in abundance fitness: 0.043 ± 0.23 for the first, -0.21 ± 0.036 for the second.

H55W and H55R are within error of each other in abundance fitness: -0.087 ± 0.091 for the first, -0.055 ± 0.045 for the second.

Going from H55P to H55V, the abundance fitness rises from -0.223 ± 0.051 to -0.035 ± 0.039.

Compared with H55N, H55C is lower in abundance fitness: 0.109 ± 0.083 for the first, -0.033 ± 0.058 for the second.

First: G12V
Second: C16Q
The abundance fitness of the first is lower: -0.452 ± 0.2 for the first, 0.072 ± 0.19 for the second.

Going from C16I to C16G, the abundance fitness falls from -0.01 ± 0.1 to -0.249 ± 0.033.

C16Y and P43Q are within error of each other in abundance fitness: -0.021 ± 0.079 for the first, -0.057 ± 0.064 for the second.

Going from P43W to P43G, the abundance fitness rises from -0.23 ± 0.055 to -0.101 ± 0.036.

P43Y and P43H are within error of each other in abundance fitness: -0.109 ± 0.093 for the first, -0.001 ± 0.11 for the second.

P43L and A21T are within error of each other in abundance fitness: -0.09 ± 0.055 for the first, -0.086 ± 0.089 for the second.

P78K and P78G are within error of each other in abundance fitness: -0.086 ± 0.21 for the first, -0.239 ± 0.11 for the second.

P78R and L11I are within error of each other in abundance fitness: 0.049 ± 0.082 for the first, -0.096 ± 0.22 for the second.

L11D and L11H are within error of each other in abundance fitness: -0.316 ± 0.13 for the first, -0.051 ± 0.22 for the second.

First: L11Y
Second: L11G
The abundance fitness of the first is higher: -0.008 ± 0.1 for the first, -0.277 ± 0.05 for the second.

L11T and L11V are within error of each other in abundance fitness: -0.278 ± 0.082 for the first, -0.163 ± 0.064 for the second.

S20R and S20N are within error of each other in abundance fitness: -0.025 ± 0.04 for the first, 0.076 ± 0.16 for the second.

S20M and R26E are within error of each other in abundance fitness: -0.115 ± 0.067 for the first, -0.016 ± 0.092 for the second.

R26Q and E32R are within error of each other in abundance fitness: -0.018 ± 0.2 for the first, -0.077 ± 0.041 for the second.

Going from E32H to E32C, the abundance fitness falls from 0.056 ± 0.11 to -0.174 ± 0.11.

E32A and E32P are within error of each other in abundance fitness: -0.008 ± 0.047 for the first, -0.042 ± 0.047 for the second.

E32G and E32F are within error of each other in abundance fitness: -0.046 ± 0.033 for the first, -0.159 ± 0.11 for the second.

E13C and E13D are within error of each other in abundance fitness: -0.152 ± 0.081 for the first, -0.001 ± 0.11 for the second.

E13T and E13R are within error of each other in abundance fitness: -0.016 ± 0.082 for the first, 0.078 ± 0.046 for the second.

First: P2E
Second: P2H
The abundance fitness of the first is lower: -0.18 ± 0.08 for the first, 0.051 ± 0.12 for the second.

Going from P2A to P2Q, the abundance fitness rises from -0.084 ± 0.055 to 0.103 ± 0.067.

H37G and H37S are within error of each other in abundance fitness: -0.236 ± 0.042 for the first, -0.23 ± 0.045 for the second.

Compared with H37V, V76G is higher in abundance fitness: -0.48 ± 0.055 for the first, -0.011 ± 0.036 for the second.

Going from V76N to V76I, the abundance fitness falls from 0.05 ± 0.078 to -0.363 ± 0.12.

V76Q and V76S are within error of each other in abundance fitness: -0.007 ± 0.078 for the first, 0.092 ± 0.044 for the second.

V76K and L17P are within error of each other in abundance fitness: 0.032 ± 0.099 for the first, -0.092 ± 0.052 for the second.

L17F and L17T are within error of each other in abundance fitness: -0.096 ± 0.093 for the first, 0.043 ± 0.066 for the second.

I14G and I14F are within error of each other in abundance fitness: -0.097 ± 0.059 for the first, -0.228 ± 0.092 for the second.

I14E and N23T are within error of each other in abundance fitness: -0.089 ± 0.11 for the first, -0.144 ± 0.066 for the second.

Going from N23W to N23G, the abundance fitness rises from -0.31 ± 0.043 to -0.126 ± 0.033.

Compared with N23E, N23P is lower in abundance fitness: -0.108 ± 0.051 for the first, -0.564 ± 0.055 for the second.

Compared with N23M, N23K is lower in abundance fitness: -0.211 ± 0.072 for the first, -0.451 ± 0.084 for the second.

Going from N23H to G72H, the abundance fitness falls from -0.111 ± 0.079 to -0.293 ± 0.073.

G72W and G72V are within error of each other in abundance fitness: -0.662 ± 0.072 for the first, -0.568 ± 0.051 for the second.

G72N and T59H are within error of each other in abundance fitness: -0.16 ± 0.19 for the first, 0.049 ± 0.082 for the second.

T59C and T59A are within error of each other in abundance fitness: 0.122 ± 0.076 for the first, 0.017 ± 0.045 for the second.

T59Q and T56F are within error of each other in abundance fitness: -0.031 ± 0.052 for the first, -0.036 ± 0.034 for the second.

T56D and T56E are within error of each other in abundance fitness: -0.069 ± 0.1 for the first, -0.087 ± 0.087 for the second.

T56M and T56W are within error of each other in abundance fitness: 0.058 ± 0.085 for the first, -0.022 ± 0.058 for the second.

N58S and N58C are within error of each other in abundance fitness: -0.03 ± 0.048 for the first, -0.052 ± 0.072 for the second.

Going from Y67P to Y67Q, the abundance fitness rises from -0.566 ± 0.065 to -0.017 ± 0.091.

Y67H and Y67K are within error of each other in abundance fitness: -0.006 ± 0.1 for the first, 0.083 ± 0.11 for the second.

Y67F and P70T are within error of each other in abundance fitness: -0.021 ± 0.065 for the first, 0.037 ± 0.041 for the second.

First: I52S
Second: I52W
The abundance fitness of the first is lower: -0.134 ± 0.054 for the first, -0.019 ± 0.056 for the second.

I52Y and I52V are within error of each other in abundance fitness: 0.171 ± 0.27 for the first, 0.035 ± 0.044 for the second.

Going from I52E to V29R, the abundance fitness falls from -0.042 ± 0.057 to -0.792 ± 0.048.

Going from V29D to V29H, the abundance fitness rises from -0.928 ± 0.16 to -0.496 ± 0.11.

V29P and V29T are within error of each other in abundance fitness: -0.17 ± 0.061 for the first, -0.162 ± 0.11 for the second.

Compared with K27P, K27V is higher in abundance fitness: -0.689 ± 0.084 for the first, -0.079 ± 0.035 for the second.

K27A and K27M are within error of each other in abundance fitness: -0.077 ± 0.04 for the first, -0.1 ± 0.058 for the second.

Going from K27S to K27D, the abundance fitness falls from -0.045 ± 0.04 to -0.235 ± 0.08.

K27Q and E36H are within error of each other in abundance fitness: 0.064 ± 0.077 for the first, -0.082 ± 0.079 for the second.

E36F and E36A are within error of each other in abundance fitness: -0.158 ± 0.1 for the first, -0.063 ± 0.052 for the second.

E36L and E63M are within error of each other in abundance fitness: -0.058 ± 0.048 for the first, -0.051 ± 0.077 for the second.

E63T and E63D are within error of each other in abundance fitness: -0.049 ± 0.053 for the first, -0.004 ± 0.089 for the second.

First: E63N
Second: L15G
The abundance fitness of the first is higher: -0.028 ± 0.088 for the first, -1.06 ± 0.13 for the second.

L15T and L15M are within error of each other in abundance fitness: 0.059 ± 0.048 for the first, -0.049 ± 0.075 for the second.

L15Y and L15I are within error of each other in abundance fitness: -0.252 ± 0.11 for the first, -0.061 ± 0.097 for the second.

P28Q and P28T are within error of each other in abundance fitness: 0.063 ± 0.062 for the first, 0.009 ± 0.066 for the second.

P28M and P28V are within error of each other in abundance fitness: -0.005 ± 0.073 for the first, -0.072 ± 0.048 for the second.

P28W and P28I are within error of each other in abundance fitness: -0.214 ± 0.064 for the first, -0.091 ± 0.12 for the second.

P28A and Q31S are within error of each other in abundance fitness: -0.016 ± 0.058 for the first, -0.019 ± 0.036 for the second.

Q31V and Q31A are within error of each other in abundance fitness: -0.027 ± 0.037 for the first, -0.045 ± 0.045 for the second.

Going from Q31M to Q31H, the abundance fitness falls from -0.049 ± 0.054 to -0.209 ± 0.07.

V61S and V61T are within error of each other in abundance fitness: -0.008 ± 0.043 for the first, 0.019 ± 0.071 for the second.

V61Q and V61K are within error of each other in abundance fitness: -0.013 ± 0.095 for the first, -0.146 ± 0.077 for the second.

S6I and S6Q are within error of each other in abundance fitness: -0.148 ± 0.061 for the first, -0.069 ± 0.087 for the second.

S6F and S6P are within error of each other in abundance fitness: -0.091 ± 0.079 for the first, -0.07 ± 0.055 for the second.

S6K and S6E are within error of each other in abundance fitness: -0.126 ± 0.075 for the first, -0.046 ± 0.061 for the second.

S6V and S6Y are within error of each other in abundance fitness: -0.171 ± 0.035 for the first, -0.206 ± 0.078 for the second.

T39D and T39C are within error of each other in abundance fitness: 0.09 ± 0.11 for the first, -0.038 ± 0.058 for the second.

Work on T39E yielded an abundance fitness of -0.137 ± 0.14.
